Positions count from the first letter of the chain named.
Target: T1, HPV E6 peptide on HLA-A*11:01 (human)
T1 peptide: TTLEQQYNK
Assay: multimer staining

B1: TCR013 (TCR, V domains shown)
Valpha: GQQVMQIPQYQHVQEGEDFTTYCNSSTTLSNIQWYKQRPGGHPVFLIQLVKSGEVKKQKRLTFQFGEAKKNSSLHITATQTTDVGTYFCAGPKITGGGNKLTFGTGTQLKVEL
Vbeta: DSGVTQTPKHLITATGQRVTLRCSPRSGDLSVYWYQQSLDQGLQFLIQYYNGEERAKGNILERFSAQQFPDLHSELNLSSLELGDSALYFCASSVGGGPNYGYTFGSGTRLTVV
**Q.** Does B1 bind?
**A.** recognises

B2: TCR028 (TCR, V domains shown)
Valpha: B1 Valpha with K93I, I94L
Vbeta: DSGVTQTPKHLITATGQRVTLRCSPRSGDLSVYWYQQSLDQGLQFLIQYYNGEERAKGNILERFSAQQFPDLHSELNLSSLELGDSALYFCASGLSGPNTGELFFGEGSRLTVL
**Q.** Does B2 bind?
**A.** recognises

B3: TCR090 (TCR, V domains shown)
Valpha: B1 Valpha with T81L, K93V, I94L
Vbeta: B2 Vbeta with K9R, H10Y, G94S, L95V, S96G
**Q.** Does B3 bind?
**A.** recognises

B4: TCR010 (TCR, V domains shown)
Valpha: AQSVTQLDSHVSVSEGTPVLLRCNYSSSYSPSLFWYVQHPNKGLQLLLKYTSAATLVKGINGFEAEFKKSETSFHLTKPSAHMSDAAEYFCVVSLSGGYNKLIFGAGTRLAVHP
Vbeta: DSGVTQTPKHLITATGQRVTLRCSPRSGDLSVYWYQQSLDQGLQFLIQYYNGEERAKGNILERFSAQQFPDLHSELNLSSLELGDSALYFCASSVTGSGYTFGSGTRLTVV
**Q.** Does B4 bind?
**A.** recognises
